Drawing on publication PMC10998907 (2024), this text covers Kd and koff for one molecule.

The term Kd denotes a measure of binding affinity in units of concentration. Low readings indicate a tighter complex, high ones a looser complex. The term koff denotes the rate constant with which the complex falls apart. A low value points to a long-lived complex.

Holding throughout (experiment): BLI
In general terms: BLI is a label-free optical method that tracks binding on a fibre tip over time.

Test [1] concerns the target T1, HeV-RBP global head domain, His-tagged (Hendra virus, UniProt O89343 183-602, biotinylated for BLI only (EZ-link Sulfo-NHS-LC-Biotin)).
The target of test [2] is T2, NiV-RBP global head domain, His-tagged (Nipah virus, UniProt Q9IH62, biotinylated for BLI only (EZ-link Sulfo-NHS-LC-Biotin)).
T2 chain: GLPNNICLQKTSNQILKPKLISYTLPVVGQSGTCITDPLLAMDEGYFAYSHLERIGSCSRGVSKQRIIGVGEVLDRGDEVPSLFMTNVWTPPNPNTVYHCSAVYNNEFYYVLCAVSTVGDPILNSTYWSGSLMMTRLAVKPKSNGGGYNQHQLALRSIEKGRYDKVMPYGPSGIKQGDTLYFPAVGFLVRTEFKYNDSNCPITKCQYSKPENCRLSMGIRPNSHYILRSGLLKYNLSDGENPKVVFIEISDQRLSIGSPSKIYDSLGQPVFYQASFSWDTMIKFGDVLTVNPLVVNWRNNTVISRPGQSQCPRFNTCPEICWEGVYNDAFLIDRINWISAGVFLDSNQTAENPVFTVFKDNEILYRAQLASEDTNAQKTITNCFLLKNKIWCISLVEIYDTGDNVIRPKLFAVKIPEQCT

Test [3] has as its target T1, HeV-RBP global head domain, His-tagged. The source holds these as a separate data set.
Test [4] deals with T2, NiV-RBP global head domain, His-tagged.

T1 sequence (O89343 183-602): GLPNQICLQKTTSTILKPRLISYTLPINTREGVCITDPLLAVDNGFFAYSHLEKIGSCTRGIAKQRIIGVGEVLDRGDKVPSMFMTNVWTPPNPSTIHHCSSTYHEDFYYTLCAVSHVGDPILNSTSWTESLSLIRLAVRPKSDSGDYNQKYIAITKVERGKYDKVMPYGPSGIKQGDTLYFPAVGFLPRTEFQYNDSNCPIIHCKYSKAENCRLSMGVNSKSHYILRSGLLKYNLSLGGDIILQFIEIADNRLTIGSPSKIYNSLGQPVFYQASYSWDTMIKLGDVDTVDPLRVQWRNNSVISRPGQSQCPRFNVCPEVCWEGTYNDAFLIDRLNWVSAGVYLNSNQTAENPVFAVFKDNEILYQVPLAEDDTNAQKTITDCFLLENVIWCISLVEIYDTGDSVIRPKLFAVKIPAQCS

B1: 41-6 Fab fragment (Fab, V domains shown)
VH: EVQLVQSGGGLVQPGGSLRLSCAASGFTVSSNYMSWVRQAPGKGLEWVSAISGSGGSTYYADSVKGRFTISRDNSKNTLYLQMNSLRAEDTAVYYCARDREDIVVVPAPRGYYYYYYMDVWGQGTTVTVSS
VL: QSVVTQPPSVSAAPGQKVTISCSGSSSNIGTNHLSWYQQVPGTAPKLLIYDNNKRPSGIPDRFSGSKSGTSASLAISGLQSEDEADYYCATWDDSLHAWVFGGGTKLTVL
Turning to B1, the Kd was 5.4 nM in test [1] and 3.6 nM in test [2]. Further, the koff in test [3] came to 0.00018 s⁻¹; in test [4], 0.0002 s⁻¹.
